In PMC6682550:

Biological target: 6xHis-tag M1 protein from Influenza A/FPV/Rostock/34, labelled with Alexa Fluor 488 (M1-Alexa488) (Influenza A virus A/FPV/Rostock/34) (UniProt P03487)
Experiment: […], pH 7.4, NaCl ~45 mM; […]

**Q.** With “6xHis-tag M1 protein from Influenza A/FPV/Rostock/34, labelled with Alexa Fluor 488 (M1-Alexa488) (from UniProt P03487 1-252) (natural protein)” as the substance, how does the stoichiometry N read?
**A.** Its stoichiometry N is 15.
